In patent publication US20120214165A1:

Molecular target: Epithelial cell adhesion molecule (EpCAM) (human) (UniProt P16422)
Experiment: cell-based or functional assay

Chain of UniProt P16422 (P16422 24-314 M115T limits assumed): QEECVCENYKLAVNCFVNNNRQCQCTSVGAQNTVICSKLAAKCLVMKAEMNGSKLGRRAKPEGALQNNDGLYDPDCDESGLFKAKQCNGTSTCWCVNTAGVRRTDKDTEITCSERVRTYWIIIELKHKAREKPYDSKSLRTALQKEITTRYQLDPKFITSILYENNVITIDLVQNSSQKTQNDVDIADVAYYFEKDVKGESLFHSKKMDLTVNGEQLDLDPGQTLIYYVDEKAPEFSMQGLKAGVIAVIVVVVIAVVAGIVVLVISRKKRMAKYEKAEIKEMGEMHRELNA

VB4-845 immunotoxin (from UniProt P11439 277-633)
IC50 of inhibition of proliferation, MTT based cell viability assay, ARO cells: 0.7 pM | IC50 of inhibition of proliferation, MTT based cell viability assay, WRO cells: 1 pM
